# ± gives the standard deviation of the averaged measurements.
# System: ATP
# Assay: switch fluorescence ratio, 500 uM ATP over buffer (Cy3 cluster intensity, sum of 5 cycles each) (fold (ratio)); higher = stronger signal-on switching upon ATP binding; sequences stand for … in TCGTCGGCAGCGTCAGATGTGTATAAGAGACAGTTTTTTTTTTTTTTTTTTTTTTTTT…TC
# Conditions: aptamer strand: ATP DNA aptamer (quencher-CACCTGGGGGAGTATTGCGGAGGAAGG + anchor), 100 nM annealed; ATP concentration: 500 uM
# Procedure, shortened: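 The fluorescence ratio divides summed target-cycle Cy3 intensity by summed buffer-cycle Cy3 intensity for each cluster and is averaged per switch-domain sequence. Cy3-labelled switching-strand clusters on a modified Illumina MiSeq flow-cell were annealed to 100 nM quencher-labelled ATP aptamer, then imaged in selection buffer and again after 15 min with 500 uM ATP at 22 °C. Five such cycles were run, with NaOH stripping and re-annealing between them, and clusters outside 100-1000 RFU were excluded.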
# 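Further: ATP exposure 15 min at 22 °C before imaging.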
row,Sequence,switch fluorescence ratio
1,GCTCGACCCT,1.07 ± 0.039
2,GCTCGCGTGG,0.956 ± 0.025
3,GCTCGGGGTT,1.01 ± 0.011
4,GCTCGTAACT,1 ± 0.0065
5,GCTCGTAGGC,0.99 ± 0.054
6,GCTCTAGGGA,0.984 ± 0.043
7,GCTCTCAGGT,1.12 ± 0.043
8,GCTCTCGGTG,1.01 ± 0.017
9,GCTCTGTTGG,1.01 ± 0.048
10,GCTCTTAAGG,0.982 ± 0.051
11,GCTGAAATTT,1.01 ± 0.056
12,GCTGAAGGAT,1 ± 0.0058
13,GCTGAATTGG,1.04 ± 0.053
14,GCTGACATTC,0.992 ± 0.04
15,GCTGACGTTA,1.1 ± 0.011
16,GCTGAGAGGC,1 ± 0.038
17,GCTGAGGATG,0.9799 ± 0.0058
18,GCTGAGGCTT,0.9593 ± 0.0019
19,GCTGATGACT,0.9918 ± 0.0063
20,GCTGATGGGC,1.05 ± 0.044
21,GCTGATGTAT,0.999 ± 0.026
22,GCTGCAAGGG,1.07 ± 0.063
23,GCTGCAGGGC,1.37 ± 0.44
24,GCTGCGCATT,1.94 ± 0.028
25,GCTGCGGGCC,1.02 ± 0.033

row,Sequence,switch fluorescence ratio
1,GCTGCGGGGT,0.993 ± 0.045
2,GCTGCTGGGT,1.01 ± 0.032
3,GCTGGAGGAA,1.07 ± 0.018
4,GCTGGATCCG,1.07 ± 0.11
5,GCTGGCCGGT,0.989 ± 0.021
6,GCTGGCTCGT,1.01 ± 0.013
7,GCTGGGAGGT,0.984 ± 0.02
8,GCTGGGCTTG,0.9947 ± 0.0033
9,GCTGGGGAAG,1.02 ± 0.019
10,GCTGGGGATA,1.03 ± 0.032
11,GCTGGGGCGG,0.98 ± 0.029
12,GCTGGGGGGA,0.981 ± 0.033
13,GCTGGGGTAT,0.984 ± 0.015
14,GCTGGGGTGG,1.01 ± 0.05
15,GCTGGTAATG,1.01 ± 0.021
16,GCTGGTTTGG,0.972 ± 0.052
17,GCTGGTTTGT,0.989 ± 0.013
18,GCTGTAAAAA,1.08 ± 0.063
19,GCTGTAAATT,0.982 ± 0.019
20,GCTGTAATAT,1.11 ± 0.015
21,GCTGTAGCGC,1.06 ± 0.035
22,GCTGTAGGAT,0.984 ± 0.017
23,GCTGTAGGTC,1.04 ± 0.013
24,GCTGTTAATG,0.984 ± 0.006
25,GCTGTTTGAT,0.959 ± 0.04

row,Sequence,switch fluorescence ratio
1,GCTGTTTGCT,1.01 ± 0.034
2,GCTGTTTTGG,0.965 ± 0.027
3,GCTGTTTTTA,0.981 ± 0.022
4,GCTTAAATTT,1 ± 0.016
5,GCTTACGGTG,1.01 ± 0.02
6,GCTTAGTGTC,0.975 ± 0.043
7,GCTTATAATG,0.997 ± 0.031
8,GCTTATACGA,1.55 ± 0.012
9,GCTTATCTAA,0.997 ± 0.016
10,GCTTATGCGG,0.949 ± 0.014
11,GCTTATGTAC,1.16 ± 0.019
12,GCTTCAGGGA,1.02 ± 0.019
13,GCTTCAGGTC,1.05 ± 0.074
14,GCTTCCTAAG,1.139 ± 0.0072
15,GCTTCCTCTA,1.74 ± 1
16,GCTTCGGAGG,1.015 ± 0.0024
17,GCTTCGGAGT,1.059 ± 0.01
18,GCTTCGGATC,1.22 ± 0.038
19,GCTTCTCTTA,0.974 ± 0.013
20,GCTTCTGGGT,0.996 ± 0.017
21,GCTTCTTGTT,1 ± 0.015
22,GCTTCTTTGT,0.9984 ± 0.0058
23,GCTTGAGGAA,0.982 ± 0.034
24,GCTTGAGGTA,1.02 ± 0.054
25,GCTTGAGTTA,0.9852 ± 0.0077

row,Sequence,switch fluorescence ratio
1,GCTTGATCCA,1.01 ± 0.018
2,GCTTGCAAAG,1.007 ± 0.0031
3,GCTTGCAAGG,0.991 ± 0.017
4,GCTTGCATTT,1.02 ± 0.035
5,GCTTGGATGT,1.0207 ± 0.00092
6,GCTTGGGCAG,1.02 ± 0.045
7,GCTTGGGGGA,0.998 ± 0.041
8,GCTTGGTCGT,1.03 ± 0.024
9,GCTTGTGATC,1.01 ± 0.028
10,GCTTTAAGGG,0.995 ± 0.024
11,GCTTTAATAA,0.991 ± 0.077
12,GCTTTACAGA,1 ± 0.016
13,GCTTTACTCA,1.36 ± 0.049
14,GCTTTAGGAT,1.01 ± 0.04
15,GCTTTAGTCA,0.967 ± 0.034
16,GCTTTATGTT,0.9938 ± 0.0015
17,GCTTTATTCC,1.06 ± 0.018
18,GCTTTGGCTT,1 ± 0.03
19,GCTTTGTATG,0.9678 ± 0.0094
20,GCTTTTAAAG,1.04 ± 0.02
21,GCTTTTATCA,0.978 ± 0.01
22,GCTTTTCAGC,1.01 ± 0.038
23,GCTTTTCGGG,1.02 ± 0.02
24,GCTTTTGAGG,1.04 ± 0.012
25,GCTTTTGGTG,1.02 ± 0.032

# — the supplement of paper PMC10126150
